Patent publication US11506662B2, “Detection, identification, and purification of degradative and non-degradative enzymes in biological samples” (The Regents of the University of California, priority 2016, dated 2022)
Starred links: 1 amine or outer side, 2 acyl side, 3 side chain; linkers in the order of their positions; H or OH if unused. Non-standard residues stand in square brackets, D forms with d. *: point of attachment. BFL = BODIPY FL (diaminoethyl-BODIPY FL label), CC1=CC(C)=[N+]2C1=Cc1ccc(CCC(=O)NCCN*)n1[B-]2(F)F; diaminoethyl = diaminoethyl linker to BODIPY FL label; Suc = O=C(CCC(=O)[*:2])[*:1]; Cy5 = Cy5 fluorescent dye; Nle = CCCC[C@H](N)C(=O)O

Legend:
Format in all cases: biochemical
[1] = target: T1, thrombin (Homo sapiens, UniProt P00734); experiment: Coagulation monitoring: thrombin activity in whole blood of subjects taking anticoagulant vs control
T1 construct: from tissue; host or cells: whole blood of subjects
Experimental: To detect thrombin activity and monitor coagulation, the thrombin targeted charge-changing peptide shown in FIG. 9 (and with the sequence of Ac-N-D^−-D^−-Nle-T-P-R^+//G-S-A-G-A-G-A-G-diamino-ethyl-BFL (SEQ ID NO:1)) was incubated in a drop of whole blood from subjects taking an anticoagulant (aspirin) and from control subjects that were not taking an anticoagulant. Fluorescence signal, indicating specific binding of the peptide to thrombin in the whole blood sample, was measured at various time points up to 30 minutes.

[2] = target: T1, thrombin; experiment: Thrombin detection using thrombin-specific charge-changing peptide substrate in 1×PBS or citrated blood; settings: 0-100 nM
Experimental: Various concentrations (0 nM, 0.5 nM, 5 nM, 10 nM, 20 nM, or 100 nM) of the thrombin targeted charge-changing peptide shown in FIG. 9 (and with the sequence Ac-N-D^−-D^−-Nle-T-P-R^+//G-S-A-G-A-G-A-G-diamino-ethyl-BFL (SEQ ID NO:1)) was incubated in either 1×PBS (FIG. 10A) or citrated blood (FIG. 10B), both of which contained thrombin. After incubation, fluorescence was measured, indicating specific binding of the peptide to the thrombin in the sample.

[3] = target: T1, thrombin; experiment: Whole blood thrombin detection with charge-changing peptide; settings: untreated whole blood
Experimental: The thrombin targeted charge-changing peptide shown in FIG. 9 (and with the sequence Ac-N-D^−-D^−-Nle-T-P-R^+//G-S-A-G-A-G-A-G-diamino-ethyl-BFL (SEQ ID NO:1)) was incubated in untreated whole blood for up to 33 minutes. A negative control was also prepared See FIG. 11A. Fluorescence was measured at 3 minute intervals during incubation.

[4] = target: cathepsin-S (Homo sapiens, UniProt P25774); experiment: Cathepsin-S detection in buffer with charge-changing peptide; settings: 1×PBS buffer with varying concentrations of cathepsin-S
cathepsin-S, sequence (P25774 115-331, species assumed): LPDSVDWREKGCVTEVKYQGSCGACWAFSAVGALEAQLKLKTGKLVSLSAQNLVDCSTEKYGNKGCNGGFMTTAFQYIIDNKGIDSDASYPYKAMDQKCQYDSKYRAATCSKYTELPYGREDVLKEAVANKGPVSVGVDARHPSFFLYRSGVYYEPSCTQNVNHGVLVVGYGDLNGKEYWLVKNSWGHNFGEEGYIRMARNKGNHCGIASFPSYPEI
Experimental: The cathepsin-S targeted charge-changing peptide shown in FIG. 9 (and with the sequence N-SUC^−-E^−-G-R^+-W-H-T-V-G//L-R^+-W-E^−-C(Cy5^−)-R^+CO-NH2 (SEQ ID NO:5)) was incubated in 1×PBS buffer with varying concentrations of cathepsin-S. After incubation, fluorescence was measured, indicating specific binding of the peptide to the cathepsin-S in the sample.

CC(=O)Oc1ccccc1C(=O)O [aspirin, reference compound]
Rate of fluorescence increase (thrombin activity), anticoagulant subjects vs control ([1]; whole blood from subjects taking aspirin vs subjects not taking an anticoagulant, up to 30 minutes): more quickly in the control group

Ac-N-D^−-D^−-Nle-T-P-R^+//G-S-A-G-A-G-A-G-diamino-ethyl-BFL (Ac-NDD[Nle]TPRGSAGAGAG-{diaminoethyl-BFL}) [SEQ ID NO:1, thrombin targeted charge-changing fluorescent peptide substrate]
Fluorescence after incubation ([2]; 1×PBS containing thrombin): Fluorescence increased with increasing thrombin concentration | Fluorescence after incubation ([2]; citrated blood containing thrombin): Fluorescence increased with increasing thrombin concentration | Time of peak fluorescence values ([3]; incubation up to 33 minutes): about 18 minutes | Fluorescence signal during incubation ([3]; up to 33 minutes, measured at 3 minute intervals): increased over time | Fluorescence signal (thrombin activity) over time ([1]; drop of whole blood, time points up to 30 minutes, both subject groups): increased in both subject groups over time

N-SUC^−-E^−G-R^+-W-H-T-V-G//L-R^+-W-E^−-C(Cy5^−)-R^+-CO-NH2 (Suc-EGRWHTVGLRWEC(Cy5)R-NH2) [SEQ ID NO:5, cathepsin-S targeted charge-changing fluorescent peptide substrate]
Fluorescence after incubation [4]: Fluorescence increased with increasing cathepsin-S concentration
